Reference: patent US20090111745A1 (DOMANTIS, published 2009)
Changes are numbered by the printed parent chain.

Experiments:
[1] = target: T1, human serum albumin (human, UniProt P02768 25-609); experiment: BIACORE, HSA flow cell (Fc=2), fit of the single trace at 1000n analyte, row 'Fc=2 - 4' [contd.]
T1 construct: also called HSA; HAS
Experimental: (§1) dAbs that bound serum albumin on a BIACORE chip (Biacore AB) were then further analysed to obtain information on affinity. The analysis was performed using a CM5 chip (carboxymethylated dextran matrix) that was coated with serum albumin. Flow cell 1 was an uncoated, blocked negative control, flow cell 2 was coated with HSA, flow cell 3 was coated with RSA and flow cell 4 was coated with MSA. The serum albumins were immobilised in acetate buffer pH 5.5 using the BIACORE coating wizard which was programmed to aim for 500 resonance units (RUs) of coated material. Each dAb of interest was expressed in the periplasm of E. coli on a 200 mL-500 mL scale and purified from the supernatant using batch absorption to protein A-streamline affinity resin (Amersham, UK) for the VH_{^S} and to protein L-agarose affinity resin (Affitech, Norway) for the Vκs followed by elution with glycine at pH 2.2 and buffer exchange to PBS. A range of concentrations of dAb were prepared (in the range 5 nM to 5 μM) by dilution into BIACORE HBS-EP buffer and flowed across the BIACORE chip.

[2] = target: T1, human serum albumin; experiment: BIACORE, HSA flow cell (Fc=2), fit of the single trace at 500n analyte, row 'Fc=2 - 5' [contd.]
Experimental: as §1

[3] = target: T1, human serum albumin; experiment: BIACORE, HSA flow cell (Fc=2), fit of the single trace at 250n analyte, row 'Fc=2 - 6'; KD cell shaded [contd.]
Experimental: (§2) dAbs that bound serum albumin on a BIACORE chip (Biacore AB) were then further analysed to obtain information on affinity. The analysis was performed using a CM5 chip (carboxymethylated dextran matrix) that was coated with serum albumin. Flow cell 1 was an uncoated, blocked negative control, flow cell 2 was coated with HSA, flow cell 3 was coated with RSA and flow cell 4 was coated with MSA. The serum albumins were immobilised in acetate buffer pH 5.5 using the BIACORE coating wizard which was programmed to aim for 500 resonance units (RUs) of coated material. […] A range of concentrations of dAb were prepared (in the range 5 nM to 5 μM) by dilution into BIACORE HBS-EP buffer and flowed across the BIACORE chip.

[4] = target: T1, human serum albumin; experiment: BIACORE, HSA flow cell (Fc=2), fit of the single trace at 2000n analyte, row 'Fc=2 - 3' [contd.]
Experimental: as §1

[5] = target: T1, human serum albumin; experiment: BIACORE, HSA flow cell (Fc=2), fit of the single trace at 250n analyte, row 'Fc=2 - 6' [contd.]
Experimental: as §1

[6] = target: T1, human serum albumin; experiment: BIACORE SPR, albumin on a CM5 chip, dAb in solution
Experimental: as §1

[7] = target: T1, human serum albumin; experiment: BIACORE, HSA flow cell (Fc=2), fit of the single trace at 1000n analyte, row 'Fc=2 - 4'; KD cell shaded [contd.]
Experimental: as §1

[8] = target: T1, human serum albumin; experiment: BIACORE, HSA flow cell (Fc=2), fit of the single trace at 2000n analyte, row 'Fc=2 - 3'; KD cell shaded [contd.]
Experimental: as §1

[9] = target: T2, rat serum albumin (rat, UniProt P02770 25-608); experiment: table of affinities (KD); BIACORE on serum albumin-coated chip according to Example 1;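 note: surface plasmon resonance with dAbs flowed over a chip carrying human, rat or mouse serum albumin, blocked uncoated flow cell as reference, KD from on- and off-rate curve fits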
T2 construct: also called RSA
Experimental: as §1

[10] = target: T1, human serum albumin; experiment: as above
Experimental: as §1

[11] = target: T3, mouse serum albumin (mouse, UniProt P07724 25-608); experiment: as above
T3 construct: also called MSA
Experimental: as §1

[12] = target: T1, human serum albumin; experiment: BIACORE, HSA flow cell (Fc=2), fit of the single trace at 500n analyte, row 'Fc=2 - 5'; KD cell shaded [contd.]
Experimental: as §2

[13] = target: T1, human serum albumin; experiment: BIACORE, HSA flow cell (Fc=2), fit of the single trace at 1000n analyte, row 'Fc=2 - 44' [contd.]
Experimental: as §1

[14] = target: T1, human serum albumin; experiment: BIACORE, HSA flow cell (Fc=2), fit of the single trace at 5000n analyte, row 'Fc=2 - 41'; KD cell not shaded [contd.]
Experimental: as §1

[15] = target: T1, human serum albumin; experiment: BIACORE, HSA flow cell (Fc=2), fit of the single trace at 3000n analyte, row 'Fc=2 - 42'; KD cell not shaded [contd.]
Experimental: as §1

[16] = target: T1, human serum albumin; experiment: BIACORE, HSA flow cell (Fc=2), fit of the single trace at 125n analyte, row 'Fc=2 - 47' [contd.]
Experimental: as §1

[17] = target: T1, human serum albumin; experiment: BIACORE, HSA flow cell (Fc=2), fit of the single trace at 500n analyte, row 'Fc=2 - 45'; KD cell shaded [contd.]
Experimental: as §1

[18] = target: T1, human serum albumin; experiment: BIACORE, HSA flow cell (Fc=2), fit of the single trace at 3000n analyte, row 'Fc=2 - 42' [contd.]
Experimental: as §1

[19] = target: T1, human serum albumin; experiment: BIACORE, HSA flow cell (Fc=2), fit of the single trace at 250n analyte, row 'Fc=2 - 46'; KD cell shaded [contd.]
Experimental: as §1

[20] = target: T1, human serum albumin; experiment: BIACORE, HSA flow cell (Fc=2), fit of the single trace at 125n analyte, row 'Fc=2 - 47'; KD cell shaded [contd.]
Experimental: as §1

[21] = target: T1, human serum albumin; experiment: BIACORE, HSA flow cell (Fc=2), fit of the single trace at 62.5n analyte, row 'Fc=2 - 48'; KD cell shaded [contd.]
Experimental: as §2

[22] = target: T1, human serum albumin; experiment: BIACORE, HSA flow cell (Fc=2), fit of the single trace at 2000n analyte, row 'Fc=2 - 43'; KD cell not shaded [contd.]
Experimental: as §1

[23] = target: T1, human serum albumin; experiment: BIACORE, HSA flow cell (Fc=2), fit of the single trace at 5000n analyte, row 'Fc=2 - 41' [contd.]
Experimental: as §2

[24] = target: T1, human serum albumin; experiment: BIACORE, HSA flow cell (Fc=2), fit of the single trace at 1000n analyte, row 'Fc=2 - 44'; KD cell not shaded [contd.]
Experimental: as §1

[25] = target: T1, human serum albumin; experiment: BIACORE, HSA flow cell (Fc=2), fit of the single trace at 2000n analyte, row 'Fc=2 - 43' [contd.]
Experimental: as §1

[26] = target: T1, human serum albumin; experiment: BIACORE, HSA flow cell (Fc=2), fit of the single trace at 62.5n analyte, row 'Fc=2 - 48' [contd.]
Experimental: as §1

[27] = target: T1, human serum albumin; experiment: BIACORE, HSA flow cell (Fc=2), fit of the single trace at 500n analyte, row 'Fc=2 - 45' [contd.]
Experimental: as §1

[28] = target: T1, human serum albumin; experiment: BIACORE, HSA flow cell (Fc=2), fit of the single trace at 250n analyte, row 'Fc=2 - 46' [contd.]
Experimental: as §1

[29] = target: T2, rat serum albumin; experiment: BIACORE, RSA flow cell (Fc=3), fit of the single trace at 20n analyte, row 'Fc=3 -2'; KD cell shaded [contd.]
Experimental: as §1

[30] = target: T2, rat serum albumin; experiment: BIACORE, RSA flow cell (Fc=3), fit of the single trace at 5n analyte, row 'Fc=3 -5' [contd.]
Experimental: as §1

[31] = target: T2, rat serum albumin; experiment: BIACORE, RSA flow cell (Fc=3), fit of the single trace at 20n analyte, row 'Fc=3 -2' [contd.]
Experimental: as §1

[32] = target: T2, rat serum albumin; experiment: BIACORE, RSA flow cell (Fc=3), fit of the single trace at 25n analyte, row 'Fc=3 -1'; KD cell shaded [contd.]
Experimental: as §2

[33] = target: T2, rat serum albumin; experiment: BIACORE, RSA flow cell (Fc=3), fit of the single trace at 15n analyte, row 'Fc=3 -3'; KD cell shaded [contd.]
Experimental: as §1

[34] = target: T2, rat serum albumin; experiment: BIACORE, RSA flow cell (Fc=3), fit of the single trace at 10n analyte, row 'Fc=3 -4'; KD cell shaded [contd.]
Experimental: as §2

[35] = target: T2, rat serum albumin; experiment: BIACORE SPR, albumin on a CM5 chip, dAb in solution
Experimental: as §1

[36] = target: T2, rat serum albumin; experiment: BIACORE, RSA flow cell (Fc=3), fit of the single trace at 5n analyte, row 'Fc=3 -5'; KD cell shaded [contd.]
Experimental: as §1

[37] = target: T2, rat serum albumin; experiment: BIACORE, RSA flow cell (Fc=3), fit of the single trace at 10n analyte, row 'Fc=3 -4' [contd.]
Experimental: as §1

[38] = target: T2, rat serum albumin; experiment: BIACORE, RSA flow cell (Fc=3), fit of the single trace at 15n analyte, row 'Fc=3 -3' [contd.]
Experimental: as §1

[39] = target: T2, rat serum albumin; experiment: BIACORE, RSA flow cell (Fc=3), fit of the single trace at 25n analyte, row 'Fc=3 -1' [contd.]
Experimental: as §1

B1: DOM7h-1 (other)
VL: DIQMTQSPSSLSASVGDRVTITCRASQSISSYLNWYQQKPGKAPKLLIYRNSFLQSGVPSRFSGSGSGTDFTLTISSLQPEDFATYYCQQTYTVPPTFGQGTKVEIKQ
notes: also called DOM7-1
[1]
  Ka: 2.85e+06 M⁻¹
  koff: 0.0523 s⁻¹
  kon: 149000 M⁻¹ s⁻¹
[2]
  Ka: 2.33e+06 M⁻¹
  koff: 0.0481 s⁻¹
  kon: 112000 M⁻¹ s⁻¹
[3]
  Kd: 0.97 µM
[4]
  Ka: 1.05e+06 M⁻¹
  koff: 0.0539 s⁻¹
  kon: 56300 M⁻¹ s⁻¹
[5]
  Ka: 1.03e+06 M⁻¹
  koff: 0.0486 s⁻¹
  kon: 50100 M⁻¹ s⁻¹
[6]
  Kd: 0.5 to 5 µM
[7]
  Kd: 0.351 µM
[8]
  Kd: 0.957 µM
[9]
  Kd: > 5 µM
[10]
  Kd: 0.8 µM
[11]
  Kd: > 5 µM
[12]
  Kd: 0.429 µM

B2: DOM7h-7 (other)
VL: B1 VL with F53Q, Y92F, T93A, Q108R
[13]
  Ka: 5.93e+06 M⁻¹
  koff: 0.105 s⁻¹
  kon: 623000 M⁻¹ s⁻¹
[14]
  Kd: 9710 µM
[15]
  Kd: 45.1 µM
[16]
  Ka: 1.51e+06 M⁻¹
  koff: 0.0946 s⁻¹
  kon: 143000 M⁻¹ s⁻¹
[17]
  Kd: 0.341 µM
[18]
  Ka: 22100 M⁻¹
  koff: 0.106 s⁻¹
  kon: 2350 M⁻¹ s⁻¹
[6]
  Kd: 0.1 to 0.5 µM
[19]
  Kd: 0.353 µM
[20]
  Kd: 0.662 µM
[21]
  Kd: 0.2 µM
[22]
  Kd: 0.43 µM
[23]
  koff: 0.107 s⁻¹
[24]
  Kd: 0.169 µM
[9]
  Kd: > 5 µM
[10]
  Kd: 0.4 µM
[11]
  Kd: > 5 µM
[25]
  Ka: 2.33e+06 M⁻¹
  koff: 0.108 s⁻¹
  kon: 251000 M⁻¹ s⁻¹
[26]
  Ka: 5.01e+06 M⁻¹
  koff: 0.1 s⁻¹
  kon: 501000 M⁻¹ s⁻¹
[27]
  Ka: 2.93e+06 M⁻¹
  koff: 0.103 s⁻¹
  kon: 302000 M⁻¹ s⁻¹
[28]
  Ka: 2.83e+06 M⁻¹
  koff: 0.0998 s⁻¹
  kon: 283000 M⁻¹ s⁻¹

B3: DOM7r-1 (other)
VL: DIQTTQSPSSLSASVGDRVTITCRASQYIGRYLRWYQQKPGKAPKLLIYDSSVLQSGVPSRFSGSGSGTDFTLTISSLQPEDFATYYCQQRYRMPYTFGQGTRVEIKR
[29]
  Kd: 0.0119 µM
[30]
  Ka: 6.12e+07 M⁻¹
  koff: 0.0316 s⁻¹
  kon: 1.93e+06 M⁻¹ s⁻¹
[31]
  Ka: 8.41e+07 M⁻¹
  koff: 0.0344 s⁻¹
  kon: 2.89e+06 M⁻¹ s⁻¹
[32]
  Kd: 0.0107 µM
[33]
  Kd: 0.0131 µM
[34]
  Kd: 0.011 µM
[35]
  Kd: 0.01 to 0.1 µM
[36]
  Kd: 0.0163 µM
[37]
  Ka: 9.07e+07 M⁻¹
  koff: 0.0316 s⁻¹
  kon: 2.87e+06 M⁻¹ s⁻¹
[38]
  Ka: 7.62e+07 M⁻¹
  koff: 0.0331 s⁻¹
  kon: 2.52e+06 M⁻¹ s⁻¹
[9]
  Kd: 0.015 µM
[10]
  binding result: no binding
[11]
  binding result: no binding
[39]
  Ka: 9.35e+07 M⁻¹
  koff: 0.0345 s⁻¹
  kon: 3.23e+06 M⁻¹ s⁻¹
